Experimental findings from the supplement of paper PMC10724198 are described below.

± gives the standard deviation of the averaged measurements.
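Note: PSI is a weighted mean of sequencing reads over stability bins, variants kept only with over 10 reads, mCherry proximal and sfGFP distal, peptide attached via GGGS linker.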

For this series, the system named is Saccharomyces cerevisiae. The series is described as follows: protein stability index of tFT-peptide fusion (C-terminal peptide) (PSI (0-1 scale)); higher = more stable (slower turnover). The conditions noted are these: genetic background: wild type; temperature: 30 C.
Sequence SRYVSGGRKRKV showed a protein stability index of 0.636 ± 0.045.

SSCFVIRSLSNP: the protein stability index came out at 0.72 ± 0.14.

For SSCVSDKLLKNG, the protein stability index is 0.695 ± 0.011.

SSDNKGLFDTRI registered a protein stability index of 0.728 ± 0.024.

Consider SSFFAFYSRRRF, for which the protein stability index worked out at 0.714 ± 0.052.

SSFLAPFRFPLL had a protein stability index of 0.675 ± 0.093.

In the case of SSFLFVPHHYPS, the protein stability index amounted to 0.706 ± 0.044.

Consider SSFRRFVLVGFE, for which the protein stability index was determined as 0.607 ± 0.011.

The sequence SSGALLLLTGFM returned a protein stability index of 0.681 ± 0.013.

Take SSGISEGFERGG: the protein stability index worked out at 0.581 ± 0.014.

In turn, SSGLALGCPLGA showed a protein stability index of 0.682 ± 0.062.

The sequence SSGRHCLPCANV registered a protein stability index of 0.64 ± 0.017.

SSLERVHVCPLE registered a protein stability index of 0.64 ± 0.079.

Take SSLLFVMSYGLL: the protein stability index was determined as 0.661 ± 0.027.

Regarding SSLPDSPLNRER, the protein stability index came out at 0.693 ± 0.038.

SSLPLPRVPPPP yielded a protein stability index of 0.717 ± 0.032.

SSLSLDERKPRT returned a protein stability index of 0.712 ± 0.23.

Sequence SSLVAFPPLPAP had a protein stability index of 0.731 ± 0.024.

SSLWGAGGRGID showed a protein stability index of 0.706 ± 0.011.

Take SSMCPDGGYQWV: the protein stability index was 0.686 ± 0.0074.

On to SSPPPSAHPLPS, for which the protein stability index is 0.6933 ± 0.0055.

Regarding SSPPSARSPPPP, the protein stability index worked out at 0.717 ± 0.076.

In the case of SSPPSPPPLTLY, the protein stability index stood at 0.687 ± 0.02.

SSPRQITTLTRL: the protein stability index is 0.757 ± 0.037.

Turning to SSPTRARLFFPH, the protein stability index was determined as 0.659 ± 0.039.

SSPVDPLRPPAP displayed a protein stability index of 0.704 ± 0.013.

Take SSRRQSSRPPHS: the protein stability index was 0.648 ± 0.025.

SSRTPPRFYSLP: the protein stability index worked out at 0.708 ± 0.0074.

In the case of SSSDPYLLFCHS, the protein stability index was determined as 0.741 ± 0.37.

Consider SSSLPPSHFYPP, for which the protein stability index amounted to 0.718 ± 0.064.

SSSRCRVGHAGW showed a protein stability index of 0.67 ± 0.0096.

Take SSSTPGRATRVS: the protein stability index amounted to 0.652 ± 0.034.

Consider SSSVFFFLRRFR, for which the protein stability index is 0.698 ± 0.025.

The sequence SSSVPHFIFLPR yielded a protein stability index of 0.656 ± 0.028.

SSTGRGRGCQEM displayed a protein stability index of 0.684 ± 0.0086.

SSVFPSSPAFLP yielded a protein stability index of 0.691 ± 0.0099.

STCSTSQPPSPS registered a protein stability index of 0.663 ± 0.069.

For STFRICTGVPRP, the protein stability index is 0.729 ± 0.0093.

In turn, STGLRISPPAYM displayed a protein stability index of 0.677 ± 0.0069.

STIIYFLTYSDK displayed a protein stability index of 0.634 ± 0.063.

For the sequence STKGAIKVEECI, the protein stability index is 0.636 ± 0.023.

Sequence STLCVRLITSAR registered a protein stability index of 0.649 ± 0.077.

STNNSGRPMSFL returned a protein stability index of 0.664 ± 0.045.

STPPAPPPLLPP showed a protein stability index of 0.736 ± 0.031.

For STSYLKLKYSIY, the protein stability index worked out at 0.498 ± 0.038.

In the case of STVESAWPAGPA, the protein stability index was 0.712 ± 0.0016.

Turning to STVSLASPARSP, the protein stability index stood at 0.683 ± 0.048.

In turn, SVGSLLAFLHRR yielded a protein stability index of 0.68336 ± 0.00055.

Regarding SVIGLNLVGMGW, the protein stability index came to 0.641 ± 0.046.

On to SVIYQMMGRIVR, for which the protein stability index was found to be 0.723 ± 0.07.

SVLRGLCFDGYR displayed a protein stability index of 0.7252 ± 0.0064.

In turn, SVLSPTLESLIF returned a protein stability index of 0.681 ± 0.032.

In turn, SVNRRTVYRKNK yielded a protein stability index of 0.764 ± 0.17.

Sequence SVPLTPKTPPPP came in with a protein stability index of 0.701 ± 0.049.

Sequence SVPSRSSAALCS registered a protein stability index of 0.714 ± 0.067.

On to SVPYALPTTPPR, for which the protein stability index was determined as 0.676 ± 0.045.

For SVRLVGHGARDR, the protein stability index is 0.699 ± 0.18.

Take SVSPRPSPPAVP: the protein stability index came out at 0.708 ± 0.13.

Sequence SVVLIQVVSKPT showed a protein stability index of 0.58 ± 0.015.

Consider SVVVIGSSYASG, for which the protein stability index was 0.5899 ± 0.0023.

The sequence SVVVVAKAKAGR yielded a protein stability index of 0.635 ± 0.047.

SVWFSFVKVRGG: the protein stability index is 0.612 ± 0.0037.

On to SVYFSLITRPYY, for which the protein stability index came out at 0.667 ± 0.012.

Take SWCQFAVGGIIH: the protein stability index is 0.664 ± 0.013.
